The record followed here is PMC5344418, “Directed evolution of a soluble human DR3 receptor for the inhibition of TL1A induced cytokine secretion” (PLoS ONE, 2017).

Holding throughout (test): SPR; ProteOn XPR36; DR3 variants (5 ug, acetate buffer pH 5.5) immobilised on a GLC chip, BSA as reference; TL1A run at 100, 50, 25, 12.5 and 6.25 nM, 30 ul/min, 300 s, 10 min dissociation; PBS with 2 mM DTT; Langmuir single binding site model
For test [1], the target named is DR3 variant H3 (DR3 extracellular domain-Fc) (human) (UniProt Q93038).
In test [2] the target is DR3 variant O6 (DR3 extracellular domain-Fc) (human) (UniProt Q93038).
Another test addresses T1, TNF-like 1A (TL1A) (UniProt O95150 72-251).
T1 construct: TL1A (TNF-like 1A), the cytokine run over immobilised DR3 variants in SPR and added to cells; also called TL1A cytokine
T1 sequence (looked up): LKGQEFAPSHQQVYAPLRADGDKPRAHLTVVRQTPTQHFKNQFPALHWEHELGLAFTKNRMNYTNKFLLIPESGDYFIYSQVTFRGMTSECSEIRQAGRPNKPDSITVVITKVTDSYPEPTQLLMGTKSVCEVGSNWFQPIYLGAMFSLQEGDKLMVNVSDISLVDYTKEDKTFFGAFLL
The settings on record: both partners purified.

In test [1], “TNF-like 1A (TL1A) (from UniProt O95150 72-251) (ligand)” yielded a Kd of 8.26 nM, a koff of 0.000351 s⁻¹ and a kon of 42600 M⁻¹ s⁻¹. In addition, in test [2], the Kd was 9.83 nM, the koff is 0.000357 s⁻¹ and the kon stood at 36300 M⁻¹ s⁻¹.

B1: native DR3-Fc (human DR3 extracellular domain fused with human IgG1 Fc) (Fc fusion, UniProt Q93038 25-199, looked up)
chain: QGGTRSPRCDCAGDFHKKIGLFCCRGCPAGHYLKAPCTEPCGNSTCLVCPQDTFLAWENHHNSECARCQACDEQASQVALENCSAVADTRCGCKPGWFVECQVSQCVSSSPFYCQPCLDCGALHRHTRLLCSRRDTDCGTCLPGFYEHGDGCVSCPTSTLGSCPERCAAVCGWRQ
modifications: N-linked glycosylation (shown by Endo-H cleavage)
notes: amplified from an EST cDNA clone (Open Biosystems); pFUSE vector (Invivogen); also called WT; soluble native DR3; source: HEK293T, transfected, conditioned medium (ELISA screen); 293F (HEK293F), transfected, purified (MonoQ, SP, butyl HIC); not shown: Fc (human IgG1), C-terminal, kept
In the test with TNF-like 1A (TL1A), B1 showed a Kd of 44.9 nM, a koff of 0.00072 s⁻¹ and a kon of 16000 M⁻¹ s⁻¹.
